Assay results published in US20180334496A1.

Molecular target: Recombinant His-tagged FcγRIIb (UniProt P31994)
Assay: ELISA, antibody coated at 2 uM, His-tagged FcγRIIb titrated 1:3 from 2 uM, HRP anti-His; the concentration is that of the receptor

Chain of Recombinant His-tagged FcγRIIb (P31994 46-217 limits assumed): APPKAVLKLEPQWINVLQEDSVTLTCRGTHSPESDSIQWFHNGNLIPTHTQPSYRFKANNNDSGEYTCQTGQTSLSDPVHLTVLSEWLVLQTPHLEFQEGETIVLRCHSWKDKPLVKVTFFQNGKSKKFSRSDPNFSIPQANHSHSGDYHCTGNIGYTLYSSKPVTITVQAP

Which EC50 (read off the curve) does the source give for Avastin (antibody) here?
Its EC50 (read off the curve) is 70 nM.
